Reference: patent publication US20250262242A1 (published 2025)

Tests used:
[1] = biological target: T1, EBV LMP2 peptide on HLA-A*02:01 (human); assay: activation reporter or marker
T1 peptide: CLGGLLTMV

[2] = biological target: T2, EBV BZLF1 peptide on HLA-B*35:01 (human); assay: activation reporter or marker
T2 peptide: EPLPQGQLTAY

[3] = biological target: T3, EBV LMP2 (LMP2A) peptide on HLA-A*02:01 (human); assay: activation reporter or marker
T3 peptide: MGSLEMVPM

[4] = biological target: T4, mutant splice factor-induced (SF3B1mut) splice variant of MAPK8IP2 peptide on HLA-A*02:01 (human); assay: killing
T4 peptide: RLPGVLPRA

[5] = biological target: T4, mutant splice factor-induced (SF3B1mut) …; assay: multimer staining
[6] = biological target: T5, EBV BRLF1 peptide on HLA-A*02:01 (human); assay: activation reporter or marker
T5 peptide: YVLDHLIVV

[7] = biological target: T6, HERV-K gag protein peptide on HLA-A*02:01 (human); assay: killing
T6 peptide: FLQFKTWWI

B1: TCR_A0064 (TCR, V domains shown)
Valpha: GQQVMQIPQYQHVQEGEDFTTYCNSSTTLSNIQWYKQRPGGHPVFLIQLVKSGEVKKQKRLTFQFGEAKKNSSLHITATQTTDVGTYFCAGAGAGSYQLTFGKGTKLSVIP
Vbeta: KAGVTQTPRYLIKTRGQQVTLSCSPISGHRSVSWYQQTPGQGLQFLFEYFSETQRNKGNFPGRFSGRQFSNSRSEMNVSTLELGDSALYLCASSLEGQASSYEQYFGPGTRLTVT
B1: recognises [1].

B2: TCR_A0066 (TCR, V domains shown)
Valpha: GQQVMQIPQYQHVQEGEDFTTYCNSSTTLSNIQWYKQRPGGHPVFLIQLVKSGEVKKQKRLTFQFGEAKKNSSLHITATQTTDVGTYFCAGAGAGSYQLTFGKGTKLSVIP
Vbeta: KAGVTQTPRYLIKTRGQQVTLSCSPISGHRSVSWYQQTPGQGLQFLFEYFSETQRNKGNFPGRFSGRQFSNSRSEMNVSTLELGDSALYLCASSAEGQASSYEQYFGPGTRLTVT
B2: recognises [1].

B3: TCR_A0061 (TCR, V domains shown)
Valpha: KQEVTQIPAALSVPEGENLVLNCSFTDSAIYNLQWFRQDPGKGLTSLLLIQSSQREQTSGRLNASLDKSSGRSTLYIAASQPGDSATYLCAVLMDSNYQLIWGAGTKLIIKP
Vbeta: DAGITQSPRYKITETGRQVTLMCHQTWSHSYMFWYRQDLGHGLRLIYYSAAADITDKGEVPDGYVVSRSKTENFPLTLESATRSQTSVYFCASSSDGMNTEAFFGQGTRLTVV
B3: recognises [1].

B4: TCR_A0099 (TCR, V domains shown)
Valpha: ILNVEQSPQSLHVQEGDSTNFTCSFPSSNFYALHWYRWETAKSPEALFVMTLNGDEKKKGRISATLNTKEGYSYLYIKGSQPEDSATYLCAVNAGGTSYGKLTFGQGTILTVHP
Vbeta: EAGVAQSPRYKIIEKRQSVAFWCNPISGHATLYWYQQILGQGPKLLIQFQNNGVVDDSQLPKDRFSAERLKGVDSTLKIQPAKLEDSAVYLCASSSDWTANNEQFFGPGTRLTVL
B4: recognises [2].

B5: TCR_A0015 (TCR, V domains shown)
Valpha: AQSVTQLDSQVPVFEEAPVELRCNYSSSVSVYLFWYVQYPNQGLQLLLKYLSGSTLVKGINGFEAEFNKSQTSFHLRKPSVHISDTAEYFCAVSALSYNQGGKLIFGQGTELSVKP
Vbeta: DAGVIQSPRHEVTEMGQEVTLRCKPISGHNSLFWYRQTMMRGLELLIYFNNNVPIDDSGMPEDRFSAKMPNASFSTLKIQPSEPRDSAVYFCASSWTGNEQYFGPGTRLTVT
B5: recognises [3].

B6: TCR_A0131 (TCR, V domains shown)
Valpha: AQTVTQSQPEMSVQEAETVTLSCTYDTSENNYYLFWYKQPPSRQMILVIRQEAYKQQNATENRFSVNFQKAAKSFSLKISDSQLGDTAMYFCAFMLIDSGTYKYIFGTGTRLKVLA
Vbeta: EAQVTQNPRYLITVTGKKLTVTCSQNMNHEYMSWYRQDPGLGLRQIYYSMNVEVTDKGDVPEGYKVSRKEKRNFPLILESPSPNQTSLYFCASSLGQGTETQYFGPGTRLLVL
B6: recognises [4].

B7: TCR_A0358 (TCR, V domains shown)
Valpha: AQTVTQSQPEMSVQEAETVTLSCTYDTSENNYYLFWYKQPPSRQMILVIRQEAYKQQNATENRFSVNFQKAAKSFSLKISDSQLGDTAMYFCAFMGPDSGTYKYIFGTGTRLKVLA
Vbeta: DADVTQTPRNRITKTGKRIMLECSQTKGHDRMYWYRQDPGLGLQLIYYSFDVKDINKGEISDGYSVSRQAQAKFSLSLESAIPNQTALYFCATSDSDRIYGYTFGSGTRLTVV
B7: recognises [5].

B8: TCR_A0005 (TCR, V domains shown)
Valpha: AQKITQTQPGMFVQEKEAVTLDCTYDTSDQSYGLFWYKQPSSGEMIFLIYQGSYDEQNATEGRYSLNFQKARKSANLVISASQLGDSAMYFCAMREGGNFNKFYFGSGTKLNVKP
Vbeta: SAVISQKPSRDICQRGTSLTIQCQVDSQVTMMFWYRQQPGQSLTLIATANQGSEATYESGFVIDKFPISRPNLTFSTLTVSNMSPEDSSIYLCSVGGTSGTLPANEQFFGPGTRLTVL
B8: recognises [6].

B9: TCR_A0001 (TCR, V domains shown)
Valpha: AQSVSQHNHHVILSEAASLELGCNYSYGGTVNLFWYVQYPGQHLQLLLKYFSGDPLVKGIKGFEAEFIKSKFSFNLRKPSVQWSDTAEYFCAVKDTDKLIFGTGTRLQVFP
Vbeta: not shown
B9: recognises [6].

B10: TCR_A0002 (TCR, V domains shown)
Valpha: AQSVSQHNHHVILSEAASLELGCNYSYGGTVNLFWYVQYPGQHLQLLLKYFSGDPLVKGIKGFEAEFIKSKFSFNLRKPSVQWSDTAEYFCAVKDTDKLIFGTGTRLQVFP
Vbeta: DTAVSQTPKYLVTQMGNDKSIKCEQNLGHDTMYWYKQDSKKFLKIMFSYNNKELIINETVPNRFSPKSPDKAHLNLHINSLELGDSAVYFCASSPDFNEQFFGPGTRLTVL
B10: recognises [6].

B11: TCR_A0004 (TCR, V domains shown)
Valpha: AQSVSQHNHHVILSEAASLELGCNYSYGGTVNLFWYVQYPGQHLQLLLKYFSGDPLVKGIKGFEAEFIKSKFSFNLRKPSVQWSDTAEYFCAVKDTDKLIFGTGTRLQVFP
Vbeta: not shown
B11: recognises [6].

B12: TCR_A0003 (TCR, V domains shown)
Valpha: AQSVSQHNHHVILSEAASLELGCNYSYGGTVNLFWYVQYPGQHLQLLLKYFSGDPLVKGIKGFEAEFIKSKFSFNLRKPSVQWSDTAEYFCAGGAAGNKLTFGGGTRVLVKP
Vbeta: EAGVAQSPRYKIIEKRQSVAFWCNPISGHATLYWYQQILGQGPKLLIQFQNNGVVDDSQLPKDRFSAERLKGVDSTLKIQPAKLEDSAVYLCASSSPLGGFAGANVLTFGAGSRLTVL
B12: recognises [6].

B13: TCR_A0100 (TCR, V domains shown)
Valpha: KQEVTQIPAALSVPEGENLVLNCSFTDSAIYNLQWFRQDPGKGLTSLLLIQSSQREQTSGRLNASLDKSSGRSTLYIAASQPGDSATYLCAVGGNNNDMRFGAGTRLTVKP
Vbeta: AAGVIQSPRHLIKEKRETATLKCYPIPRHDTVYWYQQGPGQDPQFLISFYEKMQSDKGSIPDRFSAQQFSDYHSELNMSSLELGDSALYFCASSLINTEAFFGQGTRLTVV
B13: recognises [7].

B14: TCR_A0130 (TCR, V domains shown)
Valpha: AQTVTQSQPEMSVQEAETVTLSCTYDTSESNYYLFWYKQPPSRQMILVIRQEAYKQQNATENRFSVNFQKAAKSFSLKISDSQLGDTAMYFCAFMIPDSNYQLIWGAGTKLIIKP
Vbeta: ETGVTQTPRHLVMGMTNKKSLKCEQHLGHNAMYWYKQSAKKPLELMFVYNFKEQTENNSVPSRFSPECPNSSHLFLHLHTLQPEDSALYLCASSQVGTSGRGGELFFGEGSRLTVL
B14: recognises [4].
